Laboratory results reported in US20130157953A1, “TREATMENT OF CARDIAC CONDITIONS” (Zealand Pharma A/S, priority 2010, published 2013).
Numbered stars: 1 amine (or outer) side, 2 acyl side, 3 side chain; on linkers, the order of the positions; unused ones are H or OH. Bridge positions count the residues as written; N and C are the ends. Square brackets hold non-standard residues; d marks the D form. Side chains are listed from the residue outwards. * marks the point of attachment. γGlu = O=C(O)[C@H](CCC(=O)[*:2])N[*:1]; Palmitoyl = CCCCCCCCCCCCCCCC(=O)*; Aib = CC(C)(N)C(=O)O

B1: Compound 263 (peptide)
peptide: H-H[Aib]QGTFTSDYSKYLDEK([γGlu-Palmitoyl])RAKDFIEWLLSA-NH2
SMILES: CCCCCCCCCCCCCCCC(=O)N[C@@H](CCC(=O)NCCCC[C@H](NC(=O)[C@H](CCC(=O)O)NC(=O)[C@H](CC(=O)O)NC(=O)[C@H](CC(C)C)NC(=O)[C@H](Cc1ccc(O)cc1)NC(=O)[C@H](CCCCN)NC(=O)[C@H](CO)NC(=O)[C@H](Cc1ccc(O)cc1)NC(=O)[C@H](CC(=O)O)NC(=O)[C@H](CO)NC(=O)[C@@H](NC(=O)[C@H](Cc1ccccc1)NC(=O)[C@@H](NC(=O)CNC(=O)[C@H](CCC(N)=O)NC(=O)C(C)(C)NC(=O)[C@@H](N)Cc1c[nH]cn1)[C@@H](C)O)[C@@H](C)O)C(=O)N[C@@H](CCCNC(=N)N)C(=O)N[C@@H](C)C(=O)N[C@@H](CCCCN)C(=O)N[C@@H](CC(=O)O)C(=O)N[C@@H](Cc1ccccc1)C(=O)N[C@H](C(=O)N[C@@H](CCC(=O)O)C(=O)N[C@@H](Cc1c[nH]c2ccccc12)C(=O)N[C@@H](CC(C)C)C(=O)N[C@@H](CC(C)C)C(=O)N[C@@H](CO)C(=O)N[C@@H](C)C(N)=O)[C@@H](C)CC)C(=O)O
B2: Compound 257 (peptide)
peptide: H-HSQGTFTSDYSKYLDKRRAEDFVWLMNT-NH2
modifications: lactam 16-20
SMILES: CSCC[C@H](NC(=O)[C@H](CC(C)C)NC(=O)[C@H](Cc1c[nH]c2ccccc12)NC(=O)[C@@H](NC(=O)[C@H](Cc1ccccc1)NC(=O)[C@H](CC(=O)O)NC(=O)[C@@H]1CCC(=O)NCCCC[C@H](NC(=O)[C@H](CC(=O)O)NC(=O)[C@H](CC(C)C)NC(=O)[C@H](Cc2ccc(O)cc2)NC(=O)[C@H](CCCCN)NC(=O)[C@H](CO)NC(=O)[C@H](Cc2ccc(O)cc2)NC(=O)[C@H](CC(=O)O)NC(=O)[C@H](CO)NC(=O)[C@@H](NC(=O)[C@H](Cc2ccccc2)NC(=O)[C@@H](NC(=O)CNC(=O)[C@H](CCC(N)=O)NC(=O)[C@H](CO)NC(=O)[C@@H](N)Cc2c[nH]cn2)[C@@H](C)O)[C@@H](C)O)C(=O)N[C@@H](CCCNC(=N)N)C(=O)N[C@@H](CCCNC(=N)N)C(=O)N[C@@H](C)C(=O)N1)C(C)C)C(=O)N[C@@H](CC(N)=O)C(=O)N[C@H](C(N)=O)[C@@H](C)O
B3: Compound 204 (peptide)
peptide: H-HSQGTFTSDYSKYLDSKAAK([γGlu-Palmitoyl])DFVEWLLRA-NH2
SMILES: CCCCCCCCCCCCCCCC(=O)N[C@@H](CCC(=O)NCCCC[C@H](NC(=O)[C@H](C)NC(=O)[C@H](C)NC(=O)[C@H](CCCCN)NC(=O)[C@H](CO)NC(=O)[C@H](CC(=O)O)NC(=O)[C@H](CC(C)C)NC(=O)[C@H](Cc1ccc(O)cc1)NC(=O)[C@H](CCCCN)NC(=O)[C@H](CO)NC(=O)[C@H](Cc1ccc(O)cc1)NC(=O)[C@H](CC(=O)O)NC(=O)[C@H](CO)NC(=O)[C@@H](NC(=O)[C@H](Cc1ccccc1)NC(=O)[C@@H](NC(=O)CNC(=O)[C@H](CCC(N)=O)NC(=O)[C@H](CO)NC(=O)[C@@H](N)Cc1c[nH]cn1)[C@@H](C)O)[C@@H](C)O)C(=O)N[C@@H](CC(=O)O)C(=O)N[C@@H](Cc1ccccc1)C(=O)N[C@H](C(=O)N[C@@H](CCC(=O)O)C(=O)N[C@@H](Cc1c[nH]c2ccccc12)C(=O)N[C@@H](CC(C)C)C(=O)N[C@@H](CC(C)C)C(=O)N[C@@H](CCCNC(=N)N)C(=O)N[C@@H](C)C(N)=O)C(C)C)C(=O)O
B4: Compound 205 (peptide)
peptide: H-HSQGTFTSDYSKYLDSKAAHDFVEWLLK([γGlu-Palmitoyl])A-NH2
SMILES: CCCCCCCCCCCCCCCC(=O)N[C@@H](CCC(=O)NCCCC[C@H](NC(=O)[C@H](CC(C)C)NC(=O)[C@H](CC(C)C)NC(=O)[C@H](Cc1c[nH]c2ccccc12)NC(=O)[C@H](CCC(=O)O)NC(=O)[C@@H](NC(=O)[C@H](Cc1ccccc1)NC(=O)[C@H](CC(=O)O)NC(=O)[C@H](Cc1c[nH]cn1)NC(=O)[C@H](C)NC(=O)[C@H](C)NC(=O)[C@H](CCCCN)NC(=O)[C@H](CO)NC(=O)[C@H](CC(=O)O)NC(=O)[C@H](CC(C)C)NC(=O)[C@H](Cc1ccc(O)cc1)NC(=O)[C@H](CCCCN)NC(=O)[C@H](CO)NC(=O)[C@H](Cc1ccc(O)cc1)NC(=O)[C@H](CC(=O)O)NC(=O)[C@H](CO)NC(=O)[C@@H](NC(=O)[C@H](Cc1ccccc1)NC(=O)[C@@H](NC(=O)CNC(=O)[C@H](CCC(N)=O)NC(=O)[C@H](CO)NC(=O)[C@@H](N)Cc1c[nH]cn1)[C@@H](C)O)[C@@H](C)O)C(C)C)C(=O)N[C@@H](C)C(N)=O)C(=O)O

What follows are binders tested against human glucagon receptor (Glucagon-R) (human, UniProt P47871 26-477) (assay: cell-based or functional assay).
human glucagon receptor (Glucagon-R), sequence (P47871 26-477): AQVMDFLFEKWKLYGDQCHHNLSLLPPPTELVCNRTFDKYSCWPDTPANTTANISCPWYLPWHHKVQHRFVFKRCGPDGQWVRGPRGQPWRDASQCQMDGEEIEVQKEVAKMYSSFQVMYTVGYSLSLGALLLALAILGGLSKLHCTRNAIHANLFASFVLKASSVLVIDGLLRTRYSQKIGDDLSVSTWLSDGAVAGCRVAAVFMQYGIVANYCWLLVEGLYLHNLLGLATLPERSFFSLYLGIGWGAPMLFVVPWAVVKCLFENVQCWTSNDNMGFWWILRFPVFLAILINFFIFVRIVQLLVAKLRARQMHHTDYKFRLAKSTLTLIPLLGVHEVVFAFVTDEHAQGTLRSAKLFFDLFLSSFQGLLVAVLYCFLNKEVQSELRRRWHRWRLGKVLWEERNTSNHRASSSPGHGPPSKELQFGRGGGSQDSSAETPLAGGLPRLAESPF

EC50 (nM) GuR; cAMP content, HEK293 cells expressing the human glucagon receptor [nM]	Binder
0.16	B1
0.05	H-HSQGTFTSDYSKYLDSRHAQDFVWLMNT-NH2 [Compound 244]
0.2	H-HSQGTFTSDYSRYLDSRRAQDFVWLLNK-NH2 [Compound 254]
1.87	H-H[Aib]QGTFTSDYSKYLDSK([3‑aminopropanoyl-Palmitoyl])AAHDFVEWLLSA-NH2 [Compound 215]
0.09	B2
0.04	B3
0.06	H-HSQGTFTSDYSKYLDSERAQDFVWLMNT-NH2 [Compound 243]
0.3	H-HSQGTFTSDYSRYLDSRRAKDFVWLLNT-NH2 [Compound 252]
0.05	H-HSQGTFTSDYSKYLDSRSAQDFVWLMNT-NH2 [Compound 245]
0.05	H-HSQGTFTSDYSKYLDSRAAQDFVWLMNT-NH2 [Compound 246]

What follows are binders tested against human glucagon-like peptide 1 receptor (GLP-1R) (human, UniProt P43220 24-463) (assay: cell-based or functional assay).

EC50 (nM) GLP-1R; cAMP content, HEK293 cells expressing human GLP-1R [nM]	Binder
0.3	H-HSQGTFTSDYSKYLDSRYAQDFVWLMNT-NH2 [Compound 247]
0.5	H-HSQGTFTSDYSKYLDSRHAQDFVWLMNT-NH2 [Compound 244]
0.2	H-HSQGTFTSDYSRYLDSRRAQDFVWLLNK-NH2 [Compound 254]
0.24	H-HSQGTFTSDYSKYLDSALAQDFVWLLNT-NH2 [Compound 255]
0.2	H-HSQGTFTSDYSKYLDSRRAQDFVWLERA-NH2 [Compound 251]
0.2	H-HSQGTFTSDYSRYLDSRRAQDFVWLLNT-NH2 [Compound 253]
0.5	H-HSQGTFTSDYSKYLDSRRAQDFVWLESA-NH2 [Compound 248]
0.09	B4
0.3	H-HSQGTFTSDYSKYLDSRRAQDFVWLKRA-NH2 [Compound 250]
0.5	H-HSQGTFTSDYSRYLDSRRAKDFVWLLNT-NH2 [Compound 252]
0.3	H-HSQGTFTSDYSKYLDSRAAQDFVWLMNT-NH2 [Compound 246]
